The values below come from the supplement of paper PMC10567573.

The labels stand for the following.
B1: CDC34 (parent)
chain: GGYFKARLKFPIDYPYSPPAFRFL
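Further: lentivirally expressed fusions sorted by FACS into six bins by GFP to DsRed ratio, PSI derived from sequencing read proportions per bin multiplied by bin number.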

The variants in the data set derive from B1. Put plainly: protein stability index of a GFP-peptide fusion (GPS, HEK-293T) (PSI 1-6); higher = more stable. The settings on record: c terminus: a fixed tail appended.
For GGYFKARLGFPIDYPYSPPAFRFL, the protein stability index was 2.29.

For GGYFKARLDFPIDYPYSPPAFRFL, the protein stability index is 2.43. To GGYFKARLNFPIDYPYSPPAFRFL belongs 2.39. To GGYFKARLHFPIDYPYSPPAFRFL belongs 3.05; to GGYFNARLKFPIDYPYSPPAFRFL, 2.89; to GGYFQARLKFPIDYPYSPPAFRFL, 3.03. The figure for GGYFEARLKFPIDYPYSPPAFRFL is 2.79. With GGYFAARLKFPIDYPYSPPAFRFL, the protein stability index was 2.24. The figure for GGYFSARLKFPIDYPYSPPAFRFL is 3.33; for GGYFIARLKFPIDYPYSPPAFRFL it is 2.76. To GGYFCARLKFPIDYPYSPPAFRFL belongs 2.85; to GGYFHARLKFPIDYPYSPPAFRFL, 2.61. To GGYFDARLKFPIDYPYSPPAFRFL belongs 2.63; to GGYFKARLKFPWDYPYSPPAFRFL, 2.12; to GGYFKARLKFPSDYPYSPPAFRFL, 3.06. For the variant GGYFKARLKFPNDYPYSPPAFRFL, the protein stability index was 2.22. To GGYFKARLKFPGDYPYSPPAFRFL belongs 3.83; to GGYFKARLKFPCDYPYSPPAFRFL, 2.64. The figure for GGYFKARLKFPVDYPYSPPAFRFL is 1.8. The figure for GGGFKARLKFPIDYPYSPPAFRFL is 1.63; for GGPFKARLKFPIDYPYSPPAFRFL it is 3.03.

GGVFKARLKFPIDYPYSPPAFRFL: the protein stability index worked out at 2.61.

GGLFKARLKFPIDYPYSPPAFRFL: the protein stability index is 2.32. The figure for GGEFKARLKFPIDYPYSPPAFRFL is 1.29; for GGFFKARLKFPIDYPYSPPAFRFL it is 1.77. The figure for GGRFKARLKFPIDYPYSPPAFRFL is 3.15; for GGYFKARLKFPIDYPYSPPGFRFL it is 2.29. The figure for GGYFKARLKFPIDYPYSPPHFRFL is 3.05; for GGYFKARLKFPIDYPYSPPWFRFL it is 2.98. As to GGYFKARLKFPIDYPYSPPMFRFL, the protein stability index is 3.57.

As for GGYFKARLKFPIDYPYSPPDFRFL, the protein stability index turned out to be 2.18. GGYFKARLKFPIDYPYSPPSFRFL: the protein stability index was determined as 2.54. Consider GGYFKARLKFPIDYPYSPPIFRFL, for which the protein stability index turned out to be 3.02. Consider GGYFKARLKFPIDYPYSPPQFRFL, for which the protein stability index turned out to be 2.41.

In the case of GGYFKARLKFPIDYPYSPPAFRKL, the protein stability index is 2.8. To GGYFKARLKFPIDYPYSPPAFRQL belongs 1.48. To GGYFKARLKFPIDYPYSPPAFRGL belongs 1.09; to GGYFKARLKFPIDYPYSPPAFRNL, 2.95. The figure for GGYFKARLKFPIDYPYSPPAFRRL is 2.42. GGYFKARLKFPIDYPYSPPAFRPL: the protein stability index is 3.15.

In the case of GGYFKARLKFPIQYPYSPPAFRFL, the protein stability index turned out to be 2.73. The figure for GGYFKARLKFPIWYPYSPPAFRFL is 2.7; for GGYFKARLKFPINYPYSPPAFRFL it is 2.64; for GGYFKARLKFPIFYPYSPPAFRFL it is 3.1. The figure for GGYFKARLKFPIEYPYSPPAFRFL is 1.97; for GGYFKARLKFPIGYPYSPPAFRFL it is 4.23; for GGYFKARLKFPILYPYSPPAFRFL it is 3.38. The figure for GAYFKARLKFPIDYPYSPPAFRFL is 3.13; for GFYFKARLKFPIDYPYSPPAFRFL it is 2.03; for GYYFKARLKFPIDYPYSPPAFRFL it is 3.

GQYFKARLKFPIDYPYSPPAFRFL: the protein stability index was found to be 2.77.

Regarding GNYFKARLKFPIDYPYSPPAFRFL, the protein stability index amounted to 2.68. The figure for GVYFKARLKFPIDYPYSPPAFRFL is 3.03. The figure for GMYFKARLKFPIDYPYSPPAFRFL is 2.92. As for GHYFKARLKFPIDYPYSPPAFRFL, the protein stability index came out at 3.54. To GLYFKARLKFPIDYPYSPPAFRFL belongs 2.2; to GKYFKARLKFPIDYPYSPPAFRFL, 1.9; to GGYFKARLKFPIDYPYEPPAFRFL, 3.71. For GGYFKARLKFPIDYPYWPPAFRFL, the protein stability index was 2.82.

In the case of GGYFKARLKFPIDYPYQPPAFRFL, the protein stability index was found to be 2.58. The figure for GGYFKARLKFPIDYPYIPPAFRFL is 3.04; for GGYFKARLKFPIDYPYHPPAFRFL it is 3.25.

On to GGYFKARLKFPIDYPYKPPAFRFL, for which the protein stability index came to 3.04. The figure for GGYFKARLKFPIDYPYGPPAFRFL is 2.85. To GGYFKARLKFPIDYPYSPPARRFL belongs 2.82; to GGYFKARLKFPIDYPYSPPADRFL, 2.34; to GGYFKARLKFPIDYPYSPPAKRFL, 2.16. The figure for GGYFKARLKFPIDYPYSPPAMRFL is 2.15; for GGYFKARLKFPIDYPYSPPACRFL it is 2.55. Turning to GGYFKARLKFPIDYPYSPPAERFL, the protein stability index was found to be 1.65. On to GGYFKARLKFPIDYPYSPPAWRFL, for which the protein stability index was 3.02.

For GGYFKARLKFPIDYPYSPPAYRFL, the protein stability index stood at 1.53. The figure for GGYFKARLKFPIDYPYSPPATRFL is 2.67; for GGYFKARLKFGIDYPYSPPAFRFL it is 2.07. To GGYFKARLKFCIDYPYSPPAFRFL belongs 3.95; to GGYFKARLKFTIDYPYSPPAFRFL, 2.28; to GGYFKARLKFSIDYPYSPPAFRFL, 3.37. To GGYFKARLKFDIDYPYSPPAFRFL belongs 2.06; to GGYFKARLKFEIDYPYSPPAFRFL, 2.75; to GGYFKARLKFPIDYDYSPPAFRFL, 3.29. As to GGYFKARLKFPIDYVYSPPAFRFL, the protein stability index came to 2.21.

On to GGYFKARLKFPIDYYYSPPAFRFL, for which the protein stability index amounted to 2.56. Turning to GGYFKARLKFPIDYMYSPPAFRFL, the protein stability index amounted to 3.04.

Turning to GGYFKARLKFPIDYIYSPPAFRFL, the protein stability index stood at 2.75. To GGYFKARLKFPIDYFYSPPAFRFL belongs 3.14; to GGYFKARLKFPIDYQYSPPAFRFL, 2.06; to KGYFKARLKFPIDYPYSPPAFRFL, 2.88. The figure for TGYFKARLKFPIDYPYSPPAFRFL is 3.19.

For the variant MGYFKARLKFPIDYPYSPPAFRFL, the protein stability index came to 3.53. The figure for YGYFKARLKFPIDYPYSPPAFRFL is 2.68; for RGYFKARLKFPIDYPYSPPAFRFL it is 2.45.

In the case of EGYFKARLKFPIDYPYSPPAFRFL, the protein stability index was 1.58. For FGYFKARLKFPIDYPYSPPAFRFL, the protein stability index was determined as 2.55. The figure for SGYFKARLKFPIDYPYSPPAFRFL is 3.14.
